# Substitutions are numbered along the chain they refer to. In names and notes the source's numbering stands.
# B1: CdgS (All2874) (Nostoc sp. PCC 7120 = FACHB-418) (protein)
# chain: MKNTVPESQCLILIVDDEPFIRAQLRLSLQCEGYRTAEAEDGRQALAIFQELQPDIVLLDAIMPDLDGFECCTRLQLLEDGKYTPVLMITGLEDQESVDRAFEVGAIDYVTKPIHWPVLRQRVKRLIQQFHLQQKLEAANRELQRLVTIDELTQVANRRRFEEYCAQEWQRMARDQLPLSLILCDVDFFKAYNDTYGHRAGDRCLQLVAKAIESCVNRPADVVARYGGEEFAVILPRTYPDGAIHLANAICTAVRELQITHLTSQANTCVTISAGVATEIPVPNSDFQEIINAADRALYQAKMTGRDGCQQYIKQSSSPVYFLNAHHRLA
# notes: REC-GGDEF response regulator; recombinant from E. coli BL21(DE3), pHTwinStrep vector (two tandem C-terminal Strep-tags)
# B2: CdgS (All2874) (Nostoc sp. PCC 7120 = FACHB-418; D60A) (protein)
# chain: B1 chain with D60A
# notes: as for B1
# Experiments:
# [1] = substrate: Nc1nc2c(ncn2[C@@H]2O[C@H](COP(=O)(O)OP(=O)(O)OP(=O)(O)O)[C@@H](O)[C@H]2O)c(=O)[nH]1; test: diguanylate cyclase assay, Michaelis-Menten and Lineweaver-Burk; type: biochemical, Nostoc sp. PCC 7120 = FACHB-418; settings: c-di-GMP synthesis; GTP varied
# From the text: diguanylate cyclase assay, Michaelis-Menten and Lineweaver-Burk on CdgS (All2874) | kinetic curves for c-di-GMP synthesis of CdgS and CdgS^D60A followed Michaelis–Menten kinetics
# [2] = substrate: Nc1nc2c(ncn2[C@@H]2O[C@H](COP(=O)(O)OP(=O)(O)OP(=O)(O)O)[C@@H](O)[C@H]2O)c(=O)[nH]1; test: as above; type: biochemical, Nostoc sp. PCC 7120 = FACHB-418; settings: c-di-GMP synthesis; GTP varied; remark: listed apart in the source
# From the text: diguanylate cyclase assay, Michaelis-Menten and Lineweaver-Burk on CdgS (All2874) | CdgS^D60A could still synthesize c-di-GMP using GTP as the substrate
Protein,Km [1] [µM],kcat [1] [s⁻¹],Km [2] [µM],kcat [2] [s⁻¹]
B1,5.84,73.68,,
B2,,,6.33,60.53

# — publication PMC9927289, “Control of Cell Size by c-di-GMP Requires a Two-Component Signaling System in the Cyanobacterium Anabaena sp. Strain PCC 7120” (Microbiology Spectrum, 2023)
